# According to patent publication US20240150423A1, “GLP-1 ANALOGUE-MODIFIED DIMERS WITH DIFFERENT CONFIGURATIONS, PREPARATION METHOD THEREOF, AND APPLICATION THEREOF IN TREATMENT OF TYPE II DIABETES” (Nanjing Finepeptide Biopharmaceutical Co.,Ltd, priority 2019, published 2024):
# “And” between values parts separate entries of the source, which are not always exact repeats. Identical values can stand only once. Like-named read-outs stand apart in the source and are kept apart here.
# Tests used:
# [1] = tested on: Normal Kunming (KM) mice; assay: single oral glucose tolerance test (sOGTT); assay type: in vivo; conditions: with more time; no significant difference
# From the text: • 1. Methods: Normal Kunming (KM) mice (purchased from Guangdong Animal Center) were used for oral glucose tolerance test (OGTT) to obtain the hypoglycemic activity and durability of drug. […] The blood glucose meter and blood glucose test paper were from Bayer […]. The average blood glucose of each group was used as an evaluation standard: When the average blood glucose of experimental group was higher than that of the NaCl control group for two times, the measurement stopped and the hypoglycemic period compared to the blank control group was the effective duration. • 2. Results • 2.1 single OGTTs: after a single administration, the mice were orally administered glucose once and measured the blood glucose from the tail blood at 0, 10, 20, 40, 60 and 120 min. […] The duration of each monomer group was about 1⁄2-1⁄4 of the duration of its corresponding dimer group. […] Therefore, the 2G3 peptide was selected for treating type II diabetes (T2D) in vivo and subsequent experiments.
# [2] = tested on: Normal Kunming (KM) mice; assay: multiple OGTT (mOGTT): hypoglycemic duration after a single administration; assay type: in vivo; conditions: single injection at the same dose (1.126 nmol), subcutaneous
# How it was run: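 Normal Kunming mice given a single dose, then oral glucose challenges; tail-blood glucose read by meter at 0, 10, 20, 40, 60 and 120 min. Duration scored as hypoglycemic period until group mean glucose exceeded the NaCl control twice.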
# [3] = tested on: GLP-1R; assay: GLP-1R Western blot analysis in T2D model; assay type: in vivo, C57B16/J mice; conditions: compared with the model control group
# [4] = cited from earlier work
# [5] = in vivo; cited from earlier work
# [6] = tested on: thyroid C-cell; conditions: rodents, dose-dependent and time-dependent; cited from earlier work
# [7] = speculated; cited from earlier work
Substance,hypoglycemic effect in single OGTT [1],Hypoglycemic duration (days) [2],GLP-1R expression (Western blot) [3],injection-site discomfort and erythema ([4]; % of patients) [%],gastrointestinal adverse reactions ([4]; Semaglutide 0.5 mg group) [%],gastrointestinal adverse reactions ([4]; Semaglutide 1 mg group) [%],"mean increase in amylase ([4]; human, in vivo) [%]","mean increase in lipase ([4]; human, in vivo) [%]","severe hypoglycemia ([4]; in combination with sulfonylurea, % of patients)","Cholelithiasis ([4]; two values printed 'respectively', groups not named)",hypoglycemic activity reduction compared with Liraglutide [5] [times],thyroid C-cell tumor [6],half-life [7] [h]
2G2 series 7: disulfide-linked homodimer of monomer SEQ ID NO: 7 (HAEGTFTSDVCSYLEGQAAXEFIAWLVRGRG; disulfide-linked homodimer; Sequence is synthesized; (20)..(20) Xaa is Xaa is 26Lys[N-e-(N-a-Palmitoyl-g-glutamyl)]; (31)..(31) C-terminal),stronger than that of monomeric G2 or G3,5 (2G2 peptide) days,significantly increased GLP-1R,,,,,,,,,,
Semaglutide,,,,0.2,32.7,36.4,13,22,0.8-1.2%,1.5% and 0.4%,3,can cause thyroid C-cell tumor,165 to 184
